# According to patent publication US10105414B2, “Peptides derived from RS1 which down-regulate glucose absorption after a glucose rich meal and increase insulin sensitivity” (Julius-Maximilians-Universität Würzburg, priority 2014, dated 2018):
# Target: T1, ODC (Homo sapiens, UniProt P11926)
# T1 sequence (P11926 1-461): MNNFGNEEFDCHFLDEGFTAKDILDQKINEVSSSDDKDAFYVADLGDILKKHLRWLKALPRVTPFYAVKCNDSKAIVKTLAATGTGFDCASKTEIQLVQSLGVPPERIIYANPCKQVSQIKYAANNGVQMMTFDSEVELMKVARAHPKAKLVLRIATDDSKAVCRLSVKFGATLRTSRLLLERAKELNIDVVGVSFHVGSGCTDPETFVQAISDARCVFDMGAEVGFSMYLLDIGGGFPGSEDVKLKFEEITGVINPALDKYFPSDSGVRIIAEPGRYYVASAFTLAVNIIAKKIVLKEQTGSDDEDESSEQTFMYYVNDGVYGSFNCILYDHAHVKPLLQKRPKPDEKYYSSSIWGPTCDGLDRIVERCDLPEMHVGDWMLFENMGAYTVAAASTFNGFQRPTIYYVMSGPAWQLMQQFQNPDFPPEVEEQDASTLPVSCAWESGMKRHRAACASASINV
# Assay: Activity of purified ODC (released CO2)
# Type: biochemical
# Conditions: 100 μM tripeptide, 80 ng purified ODC, 1 h, 37° C.
substance,measurement,value
PEQ: reverse tripeptide PEQ as control [reference compound],inhibition of ODC activity,not
